Source: US20040058356A1, “Methods for global profiling gene regulatory element activity” (priority 2001, published 2004)

How the values were obtained:
PC12 cells [1] = experiment: Global regulatory element activity profiling with PC12 nuclear extracts; assay type: cell-based, rat; conditions: treated vs untreated PC12 cells, FIG. 3
Protocol: Rat pheochromocytoma (PC) cells (cell line PC12; ATCC Number CRL-1721) were grown in high glucose Dulbecco's Modified Eagle Medium (DMEM) in the presence of 10% horse serum, and then transferred to serum-free DMEM plus N2 supplement (Invitrogen) containing 200 ng/ml Nerve Growth Factor-beta (NGF-beta; Sigma). After a 5 hour exposure, the cells were removed from the dishes, washed with PBS, and collected by centrifugation for regulatory element activity profiling.
Global regulatory element activity profiling was carried out using nuclear extracts from cells that were either untreated or treated with NGF-beta. Known transcription factor binding sites present in the DNA sequences were counted as described for Jurkat cells. Bars indicate the percentage of DNA fragments containing selected cis sites that were isolated in binding reactions containing nuclear extracts from either untreated (white bars) or NGFbeta-treated (black bars) PC12 cells. It can be seen that NGF treatment led to an increase in binding activity for AP 1, ATF and TCF11 (among others), while other activities, for example, E2F and RFX1, were reduced after NGF treatment.

PC12 cells [2] = experiment: EMSA with 32P-labeled transcription factor binding site oligonucleotides, PC12 nuclear extracts; assay type: cell-based, rat; conditions: treated vs untreated PC12 cells
Protocol: Confirmation of the increase in the transcription factor AP-1 binding activity was performed by electrophoretic mobility shift assay (EMSA). Nuclear extracts obtained from PC cells either treated with NGF-beta or untreated were combined in separate binding reactions. Each reaction also contained a ^32P-labeled oligonucleotide comprising a binding site for a specific transcription factor. […] In contrast, when the oligonucleotide was specific for the OCT1 binding site (lanes 7 and 8), no increase in gel-shifted material was observed.

B1: Nerve Growth Factor-beta (protein, UniProt P01139 122-241, looked up)
Beta-nerve growth factor: SSTHPVFHMGEFSVCDSVSVWVGDKTTATDIKGKEVTVLAEVNINNSVFRQYFFETKCRASNPVESGCRGIDSKHWNSYCTTTHTFVKALTTDEKQAAWRFIRIDTACVCVLSRKATRRG
modifications: Beta-nerve growth factor
notes: Nerve Growth Factor-beta (Sigma) used to treat PC12 cells
PC12 cells [1]
  AP 1 binding activity: increase
  ATF binding activity: increase
  E2F binding activity: reduced
  RFX1 binding activity: reduced
  TCF11 binding activity: increase
PC12 cells [2]; FIG. 4 lanes 3 and 4
  AP-1 binding site gel-shifted material (DNA-protein complexes): significant increase
PC12 cells [2]; FIG. 4 lanes 7 and 8
  OCT1 binding site gel-shifted material: no increase
